# Data published in US20250340631A1 (HARBOUR BIOMED SHANGHAI, published 2025).
# T1: Human CD32b (human, UniProt P31994 46-217, limits assumed)
# T1 sequence (looked up): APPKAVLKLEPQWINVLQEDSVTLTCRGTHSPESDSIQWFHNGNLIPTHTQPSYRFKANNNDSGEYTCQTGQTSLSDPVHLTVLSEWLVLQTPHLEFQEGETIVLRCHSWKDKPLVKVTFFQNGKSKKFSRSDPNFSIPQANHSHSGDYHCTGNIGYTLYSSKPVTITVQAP
# T2: Human CD32a(H) (human, UniProt P12318 36-218, limits assumed)
# T2 sequence (looked up): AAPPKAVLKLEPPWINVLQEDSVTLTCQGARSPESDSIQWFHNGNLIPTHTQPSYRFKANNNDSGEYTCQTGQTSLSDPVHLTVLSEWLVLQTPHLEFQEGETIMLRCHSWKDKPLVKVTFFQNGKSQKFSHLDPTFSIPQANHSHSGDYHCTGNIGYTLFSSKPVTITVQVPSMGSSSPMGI
# T3: Cynomolgus CD3E (Acro, CDE-C5226) (cynomolgus, UniProt Q95LI5 22-117, biotinylated (mixed with biotin 1:3))
# T3 sequence (looked up): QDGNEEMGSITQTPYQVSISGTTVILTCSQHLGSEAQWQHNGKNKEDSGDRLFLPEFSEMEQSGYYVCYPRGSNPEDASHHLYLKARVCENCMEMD
# T4: human CLDN3 (human, UniProt O15551 1-220)
# T4 construct: whole, on cells; also called hCLDN3
# T4 sequence (looked up): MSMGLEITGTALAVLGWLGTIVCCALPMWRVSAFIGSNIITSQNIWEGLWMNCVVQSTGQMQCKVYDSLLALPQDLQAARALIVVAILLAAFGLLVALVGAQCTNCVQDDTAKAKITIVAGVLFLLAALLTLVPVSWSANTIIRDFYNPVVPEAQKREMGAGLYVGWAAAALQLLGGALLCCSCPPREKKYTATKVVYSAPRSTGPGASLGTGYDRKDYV
# T5: human CLDN1 (human, UniProt O95832 1-211)
# T5 construct: whole, on cells; also called hCLDN1
# T5 sequence (looked up): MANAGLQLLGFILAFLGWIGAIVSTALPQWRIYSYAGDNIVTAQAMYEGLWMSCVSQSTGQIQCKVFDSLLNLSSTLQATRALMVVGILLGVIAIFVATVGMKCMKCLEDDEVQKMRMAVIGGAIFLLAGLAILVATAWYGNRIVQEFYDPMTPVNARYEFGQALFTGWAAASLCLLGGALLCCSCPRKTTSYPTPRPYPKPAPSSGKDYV
# T6: human CLDN6 (human, UniProt P56747 1-220)
# T6 construct: whole, on cells; also called hCLDN6
# T6 sequence (looked up): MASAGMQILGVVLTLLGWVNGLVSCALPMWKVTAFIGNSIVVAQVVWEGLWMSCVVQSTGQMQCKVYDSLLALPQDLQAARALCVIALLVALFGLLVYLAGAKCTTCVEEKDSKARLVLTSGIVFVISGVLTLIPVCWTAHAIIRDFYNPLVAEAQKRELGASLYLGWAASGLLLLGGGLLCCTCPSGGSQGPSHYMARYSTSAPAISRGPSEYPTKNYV
# Assays:
# Human CD64 = target: T7, Human CD64 (human, UniProt P12314 16-288, limits assumed); assay: BLI (Octet), antibody on FAB2G sensor
# T7 construct: bought recombinant protein
# T7 sequence (P12314 16-288 limits assumed): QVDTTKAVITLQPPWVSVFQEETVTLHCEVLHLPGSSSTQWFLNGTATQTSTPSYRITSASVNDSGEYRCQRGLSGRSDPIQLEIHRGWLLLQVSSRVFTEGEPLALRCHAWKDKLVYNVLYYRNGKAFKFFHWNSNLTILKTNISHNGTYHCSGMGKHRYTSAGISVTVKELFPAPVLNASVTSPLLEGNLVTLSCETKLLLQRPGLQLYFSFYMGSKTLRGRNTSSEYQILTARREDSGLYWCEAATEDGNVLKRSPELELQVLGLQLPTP
# Method: (§1) The binding kinetics between proteins and antibodies was analyzed by the Biolayer Interferometry (BLI) technique using an Octet Red 96e (Fortebio) system. The rotation speed was set at 1000 rpm for the system. […] After equilibrated in the buffer for 120 s, the FAB2G sensor was allowed to bind to 2-fold serially diluted human Fc receptor protein. Finally, the FAB2G sensor was immersed in a 10 mM glycine-hydrochloric acid solution at pH 1.5 for regeneration to elute the proteins bound to the sensor. The affinity assays of antibodies for FcRn were performed under the conditions of both pH 6.0 buffer and pH 7.4 buffer. […] For the interactions of fast binding and fast dissociation, the “steady state” method was selected to fit the data to obtain KD(M) values.
# Human CD16a(V) = Human CD16a(V) (human, UniProt P08637 17-208); assay: BLI (Octet), antibody on FAB2G sensor
# Human CD16a(V), sequence (P08637 17-208 F176V limits assumed): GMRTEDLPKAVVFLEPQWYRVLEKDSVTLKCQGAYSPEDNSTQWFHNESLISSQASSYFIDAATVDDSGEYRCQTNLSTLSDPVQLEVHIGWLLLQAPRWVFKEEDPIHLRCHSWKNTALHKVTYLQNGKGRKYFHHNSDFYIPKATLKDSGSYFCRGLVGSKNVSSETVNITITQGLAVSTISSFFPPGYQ
# Method: as §1
# Human CD16a(F) = Human CD16a(F) (human, UniProt P08637 17-208); assay: BLI (Octet), antibody on FAB2G sensor
# Human CD16a(F), sequence (P08637 17-208 limits assumed): as the sequence (P08637 17-208 F176V limits assumed) above, with V160F counted along it
# Method: as §1
# Human CD32b = target: T1, Human CD32b; assay: BLI (Octet), antibody on FAB2G sensor
# Method: as §1
# Human CD32a(H) = target: T2, Human CD32a(H); assay: BLI (Octet), antibody on FAB2G sensor
# Method: as §1
# human CLDN18.2 [1] = target: T8, human CLDN18.2 (human); assay: FACS on NUGC4_D8 cells
# T8 construct: the HEK293 line was made with a GenScript plasmid; also called hCLDN18.2
# Method: Antibodies were assayed for binding affinity by FACS. Test cells include HEK293/hCLDN18.2, HEK293/hCLDN18.1, NUGC4_D8 and Jurkat cells. […] The cell density was adjusted to 10⁶ cells/mL, and 50 μL of the cell suspension was added to each well of a 96-well plate. Antibodies were diluted to different concentrations with FACS buffer, and 50 μL of the antibody dilution was added to each well of the 96-well plate. After 2 h of incubation at 4° C., the plate was washed twice with FACS buffer. […] After 1 h of incubation at 4° C., the plate was washed twice with FACS buffer. The cells were resuspended in fixative solution, and then the fluorescence of the cells was monitored using an FACS instrument (ACEA NovoCyte).
# [2] = target: T3, Cynomolgus CD3E (Acro, CDE-C5226); assay: BLI (Octet), biotinylated CD3 on SA sensor, 1:1 global fit;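 also: antibodies applied as analyte in 2-fold serial dilutions, with a 180 s association phase followed by a 300 s dissociation phase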
# Method: (§2) The binding kinetics between proteins and antibodies was analyzed by the Biolayer Interferometry (BLI) technique using an Octet Red 96e (Fortebio) system. Human CD3E (Acro, CDE-H5223), cynomolgus CD3E (Acro, CDE-C5226) and murine CD3E (Acro, CDE-M5256) were mixed with biotin (Thermo Scientific, A39257) in a molar ratio of 1:3. The mixture was incubated at 4° C. overnight, and then excess biotin was removed to obtain biotinylated CD3E. The rotation speed was set at 1000 rpm for the system. […] After being equilibrated in the buffer for 120 s, the SA sensor with captured CD3 was allowed to bind to 2-fold serially diluted antibodies. […] Finally, the SA sensor was immersed in a 10 mM glycine-hydrochloric acid solution at pH 1.5 for regeneration to elute the antibodies bound to the sensor. […] For the interactions of fast binding and fast dissociation, the “steady state” method was selected to fit the data to obtain KD(M) values.
# [3] = target: T9, Biotinylated human CD3E&D (human, UniProt P07766 23-126; P04234 22-105, biotin label); assay: as above
# T9 construct: also called CDD-H82W6
# T9 sequence (P07766 23-126, chain 1 of 2): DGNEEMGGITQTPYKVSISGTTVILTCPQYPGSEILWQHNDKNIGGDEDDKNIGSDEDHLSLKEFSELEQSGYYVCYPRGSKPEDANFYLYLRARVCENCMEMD
# T9 sequence (P04234 22-105, chain 2 of 2): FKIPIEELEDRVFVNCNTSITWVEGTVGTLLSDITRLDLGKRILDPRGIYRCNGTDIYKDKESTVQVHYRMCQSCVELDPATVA
# Method: as §2
# [4] = target: T10, Human CD3E (Acro, CDE-H5223) (human, UniProt P07766 23-126, biotinylated (mixed with biotin 1:3)); assay: as above
# T10 construct: also called Human CD3Ec
# T10 sequence (P07766 23-126 limits assumed): as the sequence (P07766 23-126, chain 1 of 2) above
# Method: as §2
# [5] = target: T11, Biotinylated cynomolgus CD3E&D (cynomolgus, UniProt Q95LI5 22-117; Q95LI8 22-105, biotin label); assay: as above
# T11 construct: also called CDD-C82W6
# T11 sequence (Q95LI8 22-105, one chain of several): as the sequence (P04234 22-105, chain 2 of 2) above, with I5V, N15K, I20V, S32T, D33N, I34N, T64A, S74N, V83L counted along it
# Method: as §2
# human CLDN18.2 [6] = target: T8, human CLDN18.2; assay: competition FACS on HEK293/hCLDN18.2 cells; competitor 10 nM biotinylated PR000400
# Method: This example is to study the binding of anti-human CLDN18.2 bispecific antibodies to the epitope region of a human CLDN18.2 antigen. Competitive binding experiments were performed at the cellular level using human CLDN18.2-overexpressing HEK293/hCLDN18.2 cells. […] The mixture was well mixed and incubated at 4° C. for 30 min. 25 μL of the corresponding serially diluted non-biotinylated anti-human CLDN18.2 antibody was added. The mixture was well mixed and incubated at 4° C. for 1 h. The cells in each well were washed twice with 200 μL of pre-cooled FACS buffer (2% BSA in DPBS) and centrifuged at 500 g at 4° C. for 5 min, and then the supernatant was discarded. A fluorescent secondary antibody (Jackson ImmunoResearch, 016-540-084, 1:500) was added. The mixture was incubated at 4° C. in the absence of light for 1 h. The cells in each well were washed twice with 200 μL of pre-cooled FACS buffer (2% BSA in DPBS) and centrifuged at 500 g at 4° C. for 5 min, and then the supernatant was discarded. Finally, the cells in each well were resuspended in 200 μL of pre-cooled FACS buffer, and the fluorescence signal values were read using a ACEA_NovoCyte.
# [7] = target: T12, Biotinylated murine CD3E&D (murine, UniProt P22646 22-108; P04235 22-105, biotin label); assay: BLI (Octet), biotinylated CD3 on SA sensor
# T12 construct: also called CDD-M82W5
# T12 sequence (P22646 22-108, chain 1 of 2): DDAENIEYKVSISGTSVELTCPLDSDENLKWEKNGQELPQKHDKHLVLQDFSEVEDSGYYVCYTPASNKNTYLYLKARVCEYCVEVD
# T12 sequence (P04235 22-105, chain 2 of 2): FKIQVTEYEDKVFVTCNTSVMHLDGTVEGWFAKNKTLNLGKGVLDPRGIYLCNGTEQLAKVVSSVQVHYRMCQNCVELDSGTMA
# Method: as §2
# Human FcRn = Human FcRn (human, UniProt P55899 24-297; P61769 21-119); assay: BLI (Octet), antibody on FAB2G sensor, pH 6.0, 1:1 global fit; pH 6.0; 400-25 nM
# Human FcRn, sequence (P55899 24-297 limits assumed, chain 1 of 2): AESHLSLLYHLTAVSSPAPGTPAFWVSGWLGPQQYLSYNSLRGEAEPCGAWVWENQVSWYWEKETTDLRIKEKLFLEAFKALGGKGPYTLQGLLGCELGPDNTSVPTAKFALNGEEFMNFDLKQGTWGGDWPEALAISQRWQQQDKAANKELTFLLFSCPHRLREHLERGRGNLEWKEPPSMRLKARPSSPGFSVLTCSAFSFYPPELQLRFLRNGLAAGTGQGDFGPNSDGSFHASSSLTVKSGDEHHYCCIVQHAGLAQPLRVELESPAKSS
# Human FcRn, sequence (P61769 21-119 limits assumed, chain 2 of 2): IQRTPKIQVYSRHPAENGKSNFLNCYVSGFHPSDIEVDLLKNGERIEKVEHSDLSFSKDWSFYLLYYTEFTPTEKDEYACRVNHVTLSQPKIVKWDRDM
# Method: as §1
# human CLDN3 = target: T4, human CLDN3; assay: FACS on HEK293 cells transiently expressing human CLDN3
# Method: (§3) Antibodies were assayed for binding affinity to human CLDN18.2 paralogous proteins by FACS (ACEA NovoCyte). CLDN1, CLDN2, CLDN3, CLDN4, CLDN6 and CLDN9 genes of the human CLDN18.2 paralogous family were transiently transfected into HEK293 cells. […] The cell density was adjusted to 10⁶ cells/mL, and 50 μL of the cell suspension was added to each well of a 96-well plate. An antibody was diluted to 60 nM with FACS buffer, and 50 μL of the antibody dilution was added to each well of the 96-well plate. After 2 h of incubation at 4° C., the plate was washed twice with FACS buffer. Then, an FACS buffer containing a secondary antibody was added. After 1 h of incubation at 4° C., the plate was washed twice with FACS buffer. The cells were resuspended in fixative solution, and run FACS.
# human CLDN1 = target: T5, human CLDN1; assay: FACS on HEK293 cells transiently expressing human CLDN1
# Method: as §3
# human CLDN18.2 [8] = target: T8, human CLDN18.2; assay: cell-based or functional assay
# [9] = target: CLDN18.2 of SNU620 cells (methionine to leucine at amino acid 149) (human, UniProt P56856-2 1-261); assay: cell-based or functional assay
# CLDN18.2 of SNU620 cells (methionine to leucine at amino acid 149), sequence (P56856 other isoform, or with tags, fused parts or gaps limits assumed): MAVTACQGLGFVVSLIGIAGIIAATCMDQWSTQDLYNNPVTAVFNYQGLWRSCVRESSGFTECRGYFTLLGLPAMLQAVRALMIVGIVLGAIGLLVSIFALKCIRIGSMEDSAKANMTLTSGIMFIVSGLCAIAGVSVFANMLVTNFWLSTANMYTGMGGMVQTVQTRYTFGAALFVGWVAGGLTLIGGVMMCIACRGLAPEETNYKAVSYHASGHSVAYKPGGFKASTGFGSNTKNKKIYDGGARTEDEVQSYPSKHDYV
# human CLDN6 = target: T6, human CLDN6; assay: FACS on HEK293 cells transiently expressing human CLDN6
# Method: as §3
Binder,binding result (Human CD64),binding result (Human CD16a(V)),binding result (Human CD16a(F)),binding result (Human CD32b),binding result (Human CD32a(H)),EC50 (human CLDN18.2 [1]) [nM],Kd [2] [nM],koff [2] [s⁻¹],kon [2] [M⁻¹ s⁻¹],Kd [3] [nM],koff [3] [s⁻¹],kon [3] [M⁻¹ s⁻¹],Kd [4] [nM],koff [4] [s⁻¹],kon [4] [M⁻¹ s⁻¹],Kd [5] [nM],koff [5] [s⁻¹],kon [5] [M⁻¹ s⁻¹],IC50 (human CLDN18.2 [6]) [nM],Maximum inhibition rate (%) (human CLDN18.2 [6]),other results
"PR006292 (bispecific antibody, human IgG1, lambda, structure 1; CD3 Fab from PR003886, CLDN18.2 VH from PR007245; IgG1 knob/hole, AAA (L234A, L235A, G237A)) EVQLVESGGGLVQPGGSLRLSCAASGFTFSSYWMHWVRQVPGKGLVWVSRISSDASRTIYADSVKGRFTISRDNAKNTLYLQMNSLRAEDTAVYYCARGEDHDILTGYPIRGQGTTVTVSSGGGGSGGGGSGGGGSEVQLVESGGGLVQPGGSLRLSCAASGFTFSSYWMHWVRQVPGKGLVWVSRISSDASRTIYADSVKGRFTISRDNAKNTLYLQMNSLRAEDTAVYYCARGEDHDILTGYPIRGQGTTVTVSSASEPKSSDKTHTCPPCPAPEAAGAPSVFLFPPKPKDTLMISRTPEVTCVVVDVSHEDPEVKFNWYVDGVEVHNAKTKPREEQYNSTYRVVSVLTVLHQDWLNGKEYKCKVSNKALPAPIEKTISKAKGQPREPQVCTLPPSREEMTKNQVSLSCAVKGFYPSDIAVEWESNGQPENNYKTTPPVLDSDGSFFLVSKLTVDKSRWQQGNVFSCSVMHEALHNHYTQKSLSLSPGK heavy: EVQLVESGGGLVQPGGSLKLSCAASGFTFSTYAMNWVRQASGKGLEWVGRIRSKYNNYATYYADSVKDRFTISRDDSKNTAYLQMNSLKTEDTAVYYCTRHGNFGNSYVSWFAYWGQGTLVTVSSASTKGPSVFPLAPSSKSTSGGTAALGCLVKDYFPEPVTVSWNSGALTSGVHTFPAVLQSSGLYSLSSVVTVPSSSLGTQTYICNVNHKPSNTKVDKKVEPKSCDKTHTCPPCPAPEAAGAPSVFLFPPKPKDTLMISRTPEVTCVVVDVSHEDPEVKFNWYVDGVEVHNAKTKPREEQYNSTYRVVSVLTVLHQDWLNGKEYKCKVSNKALPAPIEKTISKAKGQPREPQVYTLPPCREEMTKNQVSLWCLVKGFYPSDIAVEWESNGQPENNYKTTPPVLDSDGSFFLYSKLTVDKSRWQQGNVFSCSVMHEALHNHYTQKSLSLSPGK light: QAVVTQEPSLTVSPGGTVTLTCRSSTGAVTTSNYANWVQQKPGQAPRGLIGGTNKRAPWTPARFSGSLLGDKAALTLLGAQPEDEAEYFCALWYSNLWVFGGGTKLTVLGQPKAAPSVTLFPPSSEELQANKATLVCLISDFYPGAVTVAWKADSSPVKAGVETTTPSKQSNNKYAASSYLSLTPEQWKSHRSYSCQVTHEGSTVEKTVAPTECS",no binding (tested: 800-50 nM),no binding (tested: 6000-375 nM),no binding (tested: 10000-625 nM),no binding (tested: 10000-625 nM),no binding (tested: 10000-625 nM),70.1,140,0.0105,75100,144,0.0122,84700,99,0.00978,98900,113,0.00965,85700,87.7,97.7,"binding result [7]: no binding (tested: 120-7.5 nM); Kd (Human FcRn): 200 nM; koff (Human FcRn): 0.0609 s⁻¹; kon (Human FcRn): 305000 M⁻¹ s⁻¹; binding result (human CLDN3): no binding; binding result (human CLDN1): no binding; TDCC, Titer EC50 (pM), NUGC4_D8 (human CLDN18.2 [8]): 185 pM; TDCC, Titer EC50 (pM), SNU620 [9]: 113 pM; binding result (human CLDN6): no binding"
"PR006384 (bispecific antibody, human IgG1, lambda, structure 1; CD3 Fab from PR003886, CLDN18.2 VH from PR007246; AAA) EVQLVESGGGLVQPGGSLRLSCAASGFTFSSYWMHWVRQVPGKGLVWVSRISSTGSRTIYADSVKGRFTISRDNAKNTLYLQMNSLRAEDTAVYYCARGEDHDILTGYPIRGQGTTVTVSSGGGGSGGGGSGGGGSEVQLVESGGGLVQPGGSLRLSCAASGFTFSSYWMHWVRQVPGKGLVWVSRISSTGSRTIYADSVKGRFTISRDNAKNTLYLQMNSLRAEDTAVYYCARGEDHDILTGYPIRGQGTTVTVSSASEPKSSDKTHTCPPCPAPEAAGAPSVFLFPPKPKDTLMISRTPEVTCVVVDVSHEDPEVKFNWYVDGVEVHNAKTKPREEQYNSTYRVVSVLTVLHQDWLNGKEYKCKVSNKALPAPIEKTISKAKGQPREPQVCTLPPSREEMTKNQVSLSCAVKGFYPSDIAVEWESNGQPENNYKTTPPVLDSDGSFFLVSKLTVDKSRWQQGNVFSCSVMHEALHNHYTQKSLSLSPGK heavy: EVQLVESGGGLVQPGGSLKLSCAASGFTFSTYAMNWVRQASGKGLEWVGRIRSKYNNYATYYADSVKDRFTISRDDSKNTAYLQMNSLKTEDTAVYYCTRHGNFGNSYVSWFAYWGQGTLVTVSSASTKGPSVFPLAPSSKSTSGGTAALGCLVKDYFPEPVTVSWNSGALTSGVHTFPAVLQSSGLYSLSSVVTVPSSSLGTQTYICNVNHKPSNTKVDKKVEPKSCDKTHTCPPCPAPEAAGAPSVFLFPPKPKDTLMISRTPEVTCVVVDVSHEDPEVKFNWYVDGVEVHNAKTKPREEQYNSTYRVVSVLTVLHQDWLNGKEYKCKVSNKALPAPIEKTISKAKGQPREPQVYTLPPCREEMTKNQVSLWCLVKGFYPSDIAVEWESNGQPENNYKTTPPVLDSDGSFFLYSKLTVDKSRWQQGNVFSCSVMHEALHNHYTQKSLSLSPGK light: QAVVTQEPSLTVSPGGTVTLTCRSSTGAVTTSNYANWVQQKPGQAPRGLIGGTNKRAPWTPARFSGSLLGDKAALTLLGAQPEDEAEYFCALWYSNLWVFGGGTKLTVLGQPKAAPSVTLFPPSSEELQANKATLVCLISDFYPGAVTVAWKADSSPVKAGVETTTPSKQSNNKYAASSYLSLTPEQWKSHRSYSCQVTHEGSTVEKTVAPTECS",no binding (tested: 800-50 nM),no binding (tested: 6000-375 nM),no binding (tested: 10000-625 nM),no binding (tested: 10000-625 nM),no binding (tested: 10000-625 nM),51.4,165,0.0122,74000,132,0.0119,90200,151,0.0129,85400,152,0.00942,62200,103,97.8,"binding result [7]: no binding (tested: 120-7.5 nM); Kd (Human FcRn): 210 nM; koff (Human FcRn): 0.0608 s⁻¹; kon (Human FcRn): 289000 M⁻¹ s⁻¹; binding result (human CLDN3): no binding; binding result (human CLDN1): no binding; TDCC, Titer EC50 (pM), IM95 (human CLDN18.2 [8]): 938 pM; TDCC, Titer EC50 (pM), NUGC4_D8 (human CLDN18.2 [8]): 57.9 pM; TDCC, Titer EC50 (pM), SNU620 [9]: 57.1 pM; binding result (human CLDN6): no binding"
